Ends that are not written are not given here. * marks the point of attachment. Biotin = O=C1N[C@H]2[C@H](CS[C@H]2CCCCC(=O)*)N1
B1: CK1δ-derived peptide δ-91 (peptide)
peptide: Biotin-SGSGDLFNFCSRKFSLKTV
notes: four amino acid spacer between biotin and the peptide; casein kinase 1 delta (CK1δ), human, UniProt P48730; source: synthetic peptide (peptide library), pre-dissolved in DMSO; not shown: biotin, N-terminal, kept
B2: CK1ε-derived peptide ε-41 (peptide)
peptide: Biotin-SGSGCVKTKHPQLHIESKF
notes: four amino acid spacer between biotin and the peptide; casein kinase 1 epsilon (CK1ε), human, UniProt P49674; source: synthetic peptide (peptide library), pre-dissolved in DMSO; not shown: biotin, N-terminal, kept
B3: CK1δ-derived peptide δ-1 (peptide)
peptide: Biotin-SGSGMELRVGNRYRLGRKI
notes: four amino acid spacer between biotin and the peptide; casein kinase 1 delta (CK1δ), human, UniProt P48730; also called P1; source: synthetic peptide (peptide library), pre-dissolved in DMSO; not shown: biotin, N-terminal, kept
B4: CK1ε-derived peptide ε-1 (peptide)
peptide: Biotin-SGSGMELRVGNKYRLGRKI
notes: four amino acid spacer between biotin and the peptide; casein kinase 1 epsilon (CK1ε), human, UniProt P49674; differs from δ-1 only by K for R in the middle of the peptide; source: synthetic peptide (peptide library), pre-dissolved in DMSO; not shown: biotin, N-terminal, kept
B5: CK1δ-derived peptide δ-31 (peptide)
peptide: Biotin-SGSGAGEEVAIKLECVKTK
notes: as for B1
B6: HA-CK1ε (enzyme, human, UniProt P49674 1-416, looked up)
chain: MELRVGNKYRLGRKIGSGSFGDIYLGANIASGEEVAIKLECVKTKHPQLHIESKFYKMMQGGVGIPSIKWCGAEGDYNVMVMELLGPSLEDLFNFCSRKFSLKTVLLLADQMISRIEYIHSKNFIHRDVKPDNFLMGLGKKGNLVYIIDFGLAKKYRDARTHQHIPYRENKNLTGTARYASINTHLGIEQSRRDDLESLGYVLMYFNLGSLPWQGLKAATKRQKYERISEKKMSTPIEVLCKGYPSEFSTYLNFCRSLRFDDKPDYSYLRQLFRNLFHRQGFSYDYVFDWNMLKFGAARNPEDVDRERREHEREERMGQLRGSATRALPPGPPTGATANRLRSAAEPVASTPASRIQPAGNTSPRAISRVDRERKVSMRLHRGAPANVSSSDLTGRQEVSRIPASQTSVPFDHLGK
notes: casein kinase 1 epsilon (CK1ε), human, UniProt P49674; The methods name a pCS-based vector with N-terminal HA tag for human cell culture work; also called bead-coupled HA-CK1ε; casein kinase 1 epsilon; source: bead-coupled; not shown: HA, N-terminal, kept
B7: CK1δ-derived peptide δ-231 (peptide)
peptide: Biotin-SGSGKKMSTPIEVLCKGYP
notes: as for B1
B8: CK1δ-derived peptide δ-141 (peptide)
peptide: Biotin-SGSGKGNLVYIIDFGLAKK
notes: as for B1
B9: CK1ε-derived peptide ε-241 (peptide)
peptide: Biotin-SGSGCKGYPSEFSTYLNFC
modifications: cysteine pairing not given here
notes: as for B2
B10: CK1ε-derived peptide ε-61 (peptide)
peptide: Biotin-SGSGGGVGIPSIKWCGAEG
notes: as for B2

How the values were obtained:
Settings in all cases: both partners purified
His-DDX3X^414-582 [1] = molecular target: T1, His-DDX3X^414-582 (human, UniProt O00571 414-582); assay: ELISA; His-DDX3X^414-582 coated on MaxiSorp plates (0.01 µg/µl, 100 mM sodium carbonate pH 9.6, 4°C overnight); biotinylated peptides 1 µg/well, 2.5 h at room temperature; detection with HRP-streptavidin
T1 construct: DEAD box RNA helicase 3 X-linked (DDX3X), human, UniProt O00571, C-terminal helicase domain, aa 414-582; Named without the His tag in the BLItz methods; also called C-terminal helicase domain of DDX3X; source: dialyzed in 50 mM HEPES pH 8 for ELISA and FTS
T1 sequence (O00571 414-582): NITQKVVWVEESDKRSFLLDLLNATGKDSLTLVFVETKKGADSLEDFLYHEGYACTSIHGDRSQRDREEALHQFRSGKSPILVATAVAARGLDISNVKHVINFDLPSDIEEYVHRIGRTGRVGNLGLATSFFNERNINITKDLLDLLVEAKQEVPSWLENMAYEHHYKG

His-DDX3X^414-582 [2] = molecular target: T1, His-DDX3X^414-582; assay: fluorescence thermal shift (FTS) assay; 10 µM His-DDX3X^414-582, 20 µM peptide, 50 mM HEPES pH 8, 10x SYPRO-Orange; change of melting temperature
His-DDX3X^414-582 [3] = molecular target: T1, His-DDX3X^414-582; assay: fluorescence thermal shift (FTS) assay; FTS with varying concentrations of peptide; melting temperatures fitted to single site or simple cooperative ligand binding, preferred model chosen
Flag-DDX3X = molecular target: T2, Flag-DDX3X (human, UniProt O00571 1-662); assay: pull-down; purified Flag-DDX3X proteins, incubated with total RNA where indicated, subjected to bead-coupled HA-CK1ε; Western blot
T2 construct: DEAD box RNA helicase 3 X-linked (DDX3X), human, UniProt O00571, full length; pCS-based vector with N-terminal Flag tag; purification as in Cruciat et al., 2013; also called wild-type DDX3X; DDX3X WT; source: HEK293T, transfected, purified on Flag beads (high-salt wash, eluted with Flag peptide); not shown: Flag, N-terminal, kept
T2 sequence (O00571 whole entry): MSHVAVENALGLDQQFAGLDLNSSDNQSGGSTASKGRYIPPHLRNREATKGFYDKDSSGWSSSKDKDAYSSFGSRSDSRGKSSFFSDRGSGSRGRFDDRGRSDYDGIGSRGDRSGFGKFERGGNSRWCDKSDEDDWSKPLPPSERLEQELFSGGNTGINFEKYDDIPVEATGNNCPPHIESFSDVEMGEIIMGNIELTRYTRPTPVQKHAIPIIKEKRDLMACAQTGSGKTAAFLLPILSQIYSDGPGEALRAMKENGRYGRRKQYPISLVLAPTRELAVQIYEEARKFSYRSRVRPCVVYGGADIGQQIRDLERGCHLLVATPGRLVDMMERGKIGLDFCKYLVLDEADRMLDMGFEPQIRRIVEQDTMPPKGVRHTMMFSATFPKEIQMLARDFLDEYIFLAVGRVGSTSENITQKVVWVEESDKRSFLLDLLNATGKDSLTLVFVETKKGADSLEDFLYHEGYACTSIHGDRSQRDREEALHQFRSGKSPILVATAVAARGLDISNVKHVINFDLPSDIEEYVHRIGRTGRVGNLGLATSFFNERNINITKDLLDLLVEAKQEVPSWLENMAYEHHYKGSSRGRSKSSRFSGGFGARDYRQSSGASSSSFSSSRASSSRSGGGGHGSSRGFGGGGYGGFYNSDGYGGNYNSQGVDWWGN

Binder | binding result (His-DDX3X^414-582 [1]) | increase of the melting temperature (Tm) of His-DDX3X^414-582 (His-DDX3X^414-582 [2]) [°C] | further results
B1 | binds | – | –
B2 | – | 6.3 | –
B3 | – | 3.5 | Kd (His-DDX3X^414-582 [3]): 15.6 µM
B4 | – | 4.6 | –
B5 | binds | – | –
B6 | – | – | binding result (Flag-DDX3X): binds
B7 | binds | – | –
B8 | binds | – | –
B9 | binds | – | –
B10 | binds | – | –
